The source of these data is publication PMC3179463.

The target in assay [1] is MALT1 tandem Ig-like domains (IgL1–IgL2) (human). Kind of assay: SEC; Superdex-200 16/60, 10 mg/mL protein, Tris buffer pH 8.0 (50 mM in the methods, 20 mM in the legend), 500 mM NaCl, 1 mM TCEP, 4°C; mass estimated from standard proteins.
Assay [2] shares this target. In words: AUC; sedimentation equilibrium, Beckman Optima XL-A, An-60 Ti rotor; 20 mM Tris-HCl pH 8, 200 mM NaCl, 1 mM TCEP; 12,000 and 15,000 rpm, 4°C; 0.25, 0.5 and 1.0 mg/ml; global self-association fit.

Take “MALT1 tandem Ig-like domains (IgL1–IgL2) (domain or fragment)”: the stoichiometry N (commonly a count of units in the complex or per binding partner) in assay [1] is 4; in assay [2], 3.5.
